Measured values as given in patent publication US20190046652A1.

Columns and labels:
Peptide (C4 and C2) = assay: fluorescence titration, curve fitting
protein (GFP & Nanobody) = assay: fluorescence titration, curve fitting

B1: VEPEP-3a (peptide)
peptide: XKWFERWFREWPRKRR
HELM: PEPTIDE1{[ac].[bAla].K.W.F.E.R.W.F.R.E.W.P.R.K.R.R.[SCCN[*:1]]}$$$$V2.0
SMILES: CC(=O)NCCC(=O)N[C@@H](CCCCN)C(=O)N[C@@H](Cc1c[nH]c2ccccc12)C(=O)N[C@@H](Cc1ccccc1)C(=O)N[C@@H](CCC(=O)O)C(=O)N[C@@H](CCCNC(=N)N)C(=O)N[C@@H](Cc1c[nH]c2ccccc12)C(=O)N[C@@H](Cc1ccccc1)C(=O)N[C@@H](CCCNC(=N)N)C(=O)N[C@@H](CCC(=O)O)C(=O)N[C@@H](Cc1c[nH]c2ccccc12)C(=O)N1CCC[C@H]1C(=O)N[C@@H](CCCNC(=N)N)C(=O)N[C@@H](CCCCN)C(=O)N[C@@H](CCCNC(=N)N)C(=O)N[C@@H](CCCNC(=N)N)C(=O)NCCS
Peptide (C4 and C2)
  Kd: 10 to 20 nM
Protein (GFP & Nanobody)
  Kd: 1000 nM
